This is an account of results in the DeepSol protein solubility set.

This series can be described thus: soluble on expression in E. coli; label from the status in PepcDB or PDB records.
On to “MGLSHKFQVKQFVEISPYSQSRLRHEQPQTPIHSDITTYHCHRGQFDIVAGGLPCQGTSNAGNRQGLDDPRSALWAEQFRIIESDRPAIALIENPTGLLYRGLEQIICDLDSIGYMGEWNCISAQQVGLPHQRKRIFIIAYSNGLFNQVVPAPWSNQIGNHITQVRLSLETRSYQPGISKVASRIPIGVAKNIPGNYDARRAYGLSCSPRQAAVAWKRIDYLCSLLEHHHHHH”, for which the “soluble on expression in E. coli” value is reported as “not soluble”.
Take “MGNGDKVMSHWSFHIPRLHHHEHDHEKVPKGCLAVKVGQGEEQERFVIPVMYFNHPLFGQLLKEAEEEFGFAQKGTITIPCHVEEFRYVQGLIDRENTRFLGTNLLDHHHHHHNHLIRCFRV”: the “soluble on expression in E. coli” value is given as “not soluble”.
The same measure for “MFIVKAFRDIIINIKFLQEGINMSDNKTAGQKLWENLSYNCPNVWNKIGNDEIKNTFAFCEEYKSFLDKSKTEREFVRETKKLAESKGFVSIDDVIDSGKPLKPGMKVYRVFKNKIVALAVIGSQPPEKGFNLVGAHIDSPRIDLKPNPIYEANEMVFLKTHYYGGIKKYQWVTIPLSMHGVIIRKDGSSVEIVIGEDENDTVFTITDLLPHLAAEQMQKKMSEGITGENLNILFGSIPYNDEKVKEKVKLNILKLLNEKYNITEEDLLSAELELVPSFKAKDVGLDKSMVGAYGQDDRVCAYTALRAVLDLDNVDKTAVCVLTDKEEIGSMGNTGAQSSFLENFIADICALSSEKYTDIILRRCLSNSKMLSADVNAAIDPTYEGVYDKLNSSFIGKGIVLLKYTGARGKSGASDAHAEFMGEVRKLFNERKIFWQTAELGKVDQGGGGTIAQFVANMGMDVIDCGVAVLSMHSPFEVTSKVDIYMAYKAYREFLKYIK”: “soluble”; for “MILINKRAEKQDYQTILAIWEKSVIVTHDFLTAEDRQFYKEQIPLFLDNVELFLWFAGEEVIGFSGTSERELDMLFLDPVATGNGYGSQILGWLIENKRINLVDVNEQNENATRFYLKHGFVVSSRSDLDGFGKPYPILQLQLK”: “not soluble”; for “MSGVWVFKNGVIRLVENPNQSGSDTQNRRKVMVYLPTGEVVSSYSTLEQILQSLGWERYFGGGDTDLLQFHKRSSIDLISLPRDFTKFNSVYMYDIVVKNPNYFHVRDSH”: “not soluble”.
Take “MGSDKIHHHHHHGASVQDLSNTKDAIVESETTLAENNNEYSNKNSLFYSDISSYEIFTDVNSEAALKNLYYNIDEFIDSDSSDVIVKGNIIEIEYVYIDGCSYSVLTVDVERAYKGEVQETITVYEDGGYTRLSDEKEQIEAHADLSQYTEEEMENLLINHTFMGAEHSNVGDTVILFLKTNEGSILGDSYRINCSVFGRYTLNKDSYIRPEFIVENDNPEKITTYSNMDTFEFSVSKSMLEDKLSQQ”: the “soluble on expression in E. coli” value is “not soluble”.
The same measure for “EFSSEELIRMSNYLNELLVGVPVGQVRTRILEEMRNEKVLYDKLLARALQLSEQSLNDDGAQIFIEGQTNILEQPEFADSRRMRDLFRAFEEKNQLVGLLDRCLNAQGVQIFIGAETHLSQMEGLSIITSTYLTGKNTLGVLGVIGPTRMGYAKVIPIVDYTAKLVSRLLEG”: “not soluble”; for “MSLSPSPAIPSNTDYPGPHSFDVSFQQSSTAKSATWTYSTELKKLYCQIAKTCPIQIKVMTPPPQGAVIRAMPVYKKAEHVTEVVKRCPNHELSREFNEGQIAPPSHLIRVEGNSHAQYVEDPITGRQSVLVPYEPPQVGTEFTTVLYNFMCNSSCVGGMNRRPILIIVTLETRDGQVLGRRCFEARICACPGRDRKADEDSIRKQQVSDSTKNGDGTKRPFRQNTEGHHHHHH”: “soluble”; for “MGSVNGAEALKALYALQEKDLEIDRLRAEAESPPEELVALQGQVEALEERLTNLLERRAELEREYNRHSLDIEDLSAKEKQAEEEQKRAQSAREQTQYENRIQQIKDRIRELLELSTPIMEAMENLEAEIAQVEEELAALRPRLQELLEANRARVAELEAAIAAKVEERTTMAAAIPAQILKEYEAIRRARRGTGVARMAAQGQVYRCEGCNVVLPTHVAQKVVRGQVVRCPSCGRLLWKGE”: “soluble”.
As for “MRLCDRDIEAWLDEGRLSINPRPPVERINGATVDVRLGNKFRTFRGHTAAFIDLSGPKDEVSAALDRVMSDEIVLDEGEAFYLHPGELALAVTLESVTLPADLVGWLDGRSSLARLGLMVHVTAHRIDPGWSGCIVLAFYNSGKLPLALRPGMLIGALSFEPLSGPAVRPYNRREDAKYRNQQGAVASRIDKD”, the “soluble on expression in E. coli” value was “soluble”.
For “MGSSHHHHHHGKTIFVIVPTNEEQVAFLEALAKQDELNFDWQNPPTEPGQPVVILIPSDMVEWFLEMLKAKGIPFTVYVEEGGSENLYFQGGGGGGLSLPAFSPHCHSLRLGFHVFRKQRARTKTAAVAEQRGLRWTHTTARTAKSGWPPRGHTDTHTHTHTHTHITWEYASSGMTLVFEARRLPFGSISEVYAASIQPIVALHALDKLPLWDRCMLVAVLPVVQQRHSASAAAAPPSTVVRPSLTRNDSDNADAAAASLSSATVRAANHEERVNASPELAGAPSLEDVALALTIVRALDELEVVYDSSISTRAELEQQQQQQPSLPAASLAEAPRRAFKQPKKTSEELLMEQLLQERFTDTAPYLLESSDEGGENSADAAVDVAMCFTVKGESLGIGSATIFGGHGYHP”, the “soluble on expression in E. coli” value is recorded as “not soluble”.
The entry for “MLNSAPSETEKSETEGSETKESNLVIEDEEERKECTSVKKTEGHFTRQVDQVTKYDKDYIWSLVHSQLREGGLSQAASDLVMSYFEERYAYALEHIRFARTAEAIAEYVFNGVLSEWTKQLR” is “not soluble”; for “MGSDKIHHHHHHLLVKRARLIVGNCWYLLHRIPVEIKDNSQYDIKLSDFGLSEFAESAKFDPVLCGTGPYMSGYRLEGVQGYQHSYVDDVWALAVCLFFLLYNEWPFRKRDGNVKDLLGFDPSQMWVPFPQGCRITAKRVGQGLIIENVNWPDASGDFSNYKGYDLLSYVKDQSVLEFSKVGGEIYEFRAGDDVEQINHQMNAALTEHECFIRFPGQEEDRKRRFRNEVLAGIREYWIQSDIEYGSGTRKQDLLESLATGSTEHSILQKLRVLPAYKSARKRSAEQSELGMLSFGLSGILKNSK” it is “not soluble”; for “MKKIGIIGGGQLGKMMTLEAKKMGFYVIVLDPTPRSPAGQVADEQIVAGFFDSERIEDLVKGSDVTTYDLEHIDVQTLKKLYNEGYKIHPSPYTLEIIQDKFVQKEFLKKNGIPVPEYKLVKDLESDVREFGFPVVQKARKGGYDGRGVFIIKNEKDLENAIKGETYLEEFVEIEKELAVMVARNEKGEIACYPVVEMYFDEDANICDTVIAPARIEEKYSKIAREIATSVVEALEGVGIFGIEMFLTKQGEILVNEIAPRPHNSGHYTIEACVTSQFEQHIRAIMNLPLGSTELLIPAVMVNLLGEEGYYGKPALIGLEEALAIEGLSLHFYGKKETRPYRKMGHFTVVDRDVERALEKALRAKKILKVVSEEGAMCQG” it is “soluble”.
The same measure for “TVLENGSWLIDGDTPVNKLKYVLSVDSFPGEEQGYYLTIAGLIMYILQRIPKTGDHMEFNGLRYEVVDMDGIRIDKVMVTKVPEISKD”: “not soluble”; for “MKVIKGLTAGLIFLFLCACGGQQIKDPLNYEVEPFTFQNQDGKNVSLESLKGEVWLADFIFTNCETICPPMTAHMTDLQKKLKAGNIDVRIISFSVDPENDKPKQLKKFAANYPLSFDNWDFLTGYSQSEIEEFALKSFKAIVKKPEGEDQVIHQSSFYLVGPDGKVLKDYNGVENTPYDDIISDVKSASTLKLEHHHHHH”: “not soluble”.
The entry for “MSLDKNRTMLLIVDINKGFAKEGALYSDRIEKLISPISNLANYALNSGIRVKAFTDYHTEDSIELKAYPKHCMKDTDEWELVDELNLEGIEVIKKNSTNGFLEENFILNKEEIDNVIIVGDCTDICIYQLAISLRAEFNRVNKDGEIYVPKKLVDTFDMPMHKANFMNYVFLNSMLDNGVKVIEDIILDEGHHHHHH” is “not soluble”; for “MAHHHHHHMDGEALFNHIASCSETGYLTMEDFVRWMSETATDKGQKNYESIDVDERAVMRKALLQLCERLEARCLNSLQMFRLASTMPRAYTERRADIYSLANPHRDALVTPVQLRRCIEEVLGGNPSPREMDALLSFFFPQLPLEEYRSRRDGDLEHALDLKAFQKKYHEMNKLLMLSEPSKQQQQTQQRQQE” it is “soluble”; for “MHRKRERERERERERERERERERERERERERGRDEETSKEKRVTET” it is “soluble”.
As for “MSLDLRKSKELTGIEAHINDNKKEESNVEYFEKLRSALLDGVNKGRSLLKHLPVTRIEGQSFRVDIIKFEDGVRVVKQEYKPIPLLKKKFYVGIRELNDGTYDVSIATKAGELLVKDEESLVIREILSTEGIKKMKLSSWDNPEEALNDLMNALQEASNASAGPFGLIINPKRYAKLLKIYEKSGKMLVEVLKEIFRGGIIVTLNIDENKVIIFANTPAVLDVVVGQDVTLQELGPEGDDVAFLVSEAIGIRIKNPEAIVVLEEGHHHHHH”, the “soluble on expression in E. coli” value is on record as “soluble”.
The entry for “MAHHHHHHMTILSLHGRNGADAQKWFESGLLPFPGGQKSFEMVSVMPALVYHHCMLYWAKLGCAALLQEGSVEMTGKAGSETLMFVVRNICCIQIAESPRCLPNWRLLDRVLDELLKRLDFVANCEDGVWSFASTTMRRMQCYLRSNIIRYLEVRDRPLEGQCGLLRYRGAFDCAINGVNSSGASGMGGCQTTDEVHVEVLSAETLRSAVQVMCGCDGVKVPCGDSSGGVKDGADALADLELEEFFCRYFLCSAPAAFDQPTKPTVRE” is “not soluble”.
Consider “MGSDKIHHHHHHMYPFVDRKEELKALKERLTRENFELIVIYGRRRVGKTRLVLEAVRDLPHVYYLAVEGNNLRHFRETAERVFPEVRYSREDWEGTLHALKGKIIVIDEFPNLIKENPRVLSLFQRVIDLDLSNSNTKMILLGSSVSMMTEKVLSYKSPLYGRRTGSMKLKPMGFFSLRVFFPTASWEELVEIYGMTDGIPFYITQVKLPFWEWLEEELSSPVSFFRDEVDFLLKYEFSEVSTYKRILEAIALGKTTPKEIRDFTGLRHSDISPYLRNLIEADLIVREVPVTEKGTSKRGRYYIADNFLAFWFRFIFPNLSRIEEGTFSVEEIRDSYDHYLGLVFEKVARQFLVKLNKAGNLPFKFTKIGRWWHKNEEIDLVALNEREKRALFVEVKWKSLSGREARGILWDLERKSELVGLEGWEKHYGLVAKEIRNKNALKSEGWLVWDLGDFERLISPGEISYL”, for which the “soluble on expression in E. coli” value is recorded as “not soluble”.
The same measure for “MENSGHKVYYCMGSPLFALNAGRMENNLVAFSGGLSINKQLQKEGKPGINVSPSFINENNPDTIFISGFLSRPLDEFYTLCRQYGIETDAVKQQRVYEVPPSWDFGNPRWILGLMYIADKLYPGNSGIDLEKEADEFYRQFYGMPYLEHHHHHH”: “soluble”; for “MPMTLGYWNIRGLAHSIRLLLEYTDSSYEEKKYTMGDAPDYDRSQWLNEKFKLGLDFPNLPYLIDGTHKITQSNAILRYIARKHNLCGESEKEQIREDILENQFMDSRMQLAKLCYDPDFEKLKPEYLQALPEMLKLYSQFLGKQPWFLGDKITFVDFIAYDVLERNQVFEPSCLDAFPNLKDFISRFEGLEKISAYMKSSRFLPRPVFSKMAVWGNK”: “soluble”; for “MGLFDGLLGNATQNNNETAEKELRDVLIPNEKVDMAFTLVRDLIVFTDKRLILVDKQGITGKKVDYKSIPYKSISRFSVETSGHFDLDAELKIWISSTELPSVSLQFRKDKDIVAIQQALAAAVLS”: “not soluble”.
The entry for “MTAEVMSHVTAHFGKTLEECREESGLSVDILDEFKHFWSDDFDVVHRELGCAIICMSNKFSLMDDDVRMHHVNMDEYIKSFPNGQVLAEKMVKLIHNCEKQFDTETDDCTRVVKVAACFKEDSRKEGIAPEVAMVEAVIEKY” is “soluble”.
